Experimental data published in the DeepSol protein solubility set.

assay: soluble on expression in E. coli; label from the status in PepcDB or PDB records

Soluble on expression in E. coli, not soluble:
MAHHHHHHMLCRNVSRSYSARRRCRPSVCVAFGALLVEPPQAAYLRRCAVSSRATATAASLSSDHASLSVCKRCEHTTTIATPPERVLTTKEQVDELMDSFAEACELITDAKESVGTTYFADDMEDAEKQTHDVLNRWESLQAALERKGTAEELQKVRNMYDLKIKQLKAELEAVREAGGAG
MNYHQYYPVDVVNGPGTRCSLFVAGCVHECVGCYNKSTWRLNSGQPFTQEQEDRIIADLQDKLIPRQGISLSGGDPLHPQNVPDILRLVERIRAECPGKDIWVWTGYVLADITREQQRVVDLINVLVDGKFVQDLKDPALIWRGSSNQVVHRLRLEHHHHHH
MGSDKIHHHHHHMQSLSSHYHQLLGLPSNWEVENVNLSMSSRQVEIRLAFTGKQGECPICGQSCLIYDHAAEQRWRHLDTMQFETILVARLPRCQCKEHGVKTVQAPWAARHSRFTLLFESFAVELLLHCANIKAASRLLRLNWHTVNQIMRRAVQRGLVRRKTETVEYLGIDEKSFKAGQHDVTTLTDLGERRVLEVVEHRTTEATKELLASLNDSQQAGVKAVSVDMWKPFIHAVQELLPKADLVHDRFHISKYLNEAVDLVRRKECRQLDKAGDKRLIGSTYVWLRNPENMGEQQQAELGKLMDAEFRTGKAWSLKNMFRAFWQLGCADAGTFFFEYWSKRIDEVGLVPLTKVKELLQRHFGNVLTWFKHPITNAVSEGLNSKIQIVKASARGFHRFESYRIRILFYCGKLNMAIGS
MLKKRFYILLFFCLLLGGNVNSSTVDKGDNNAPFENKRTETDYLPIADPFVMLYNNKYYAYGTGGTVNEGFACFSSDDLKNWKRERQALSADDSYGKWGFWAPEVYYIQSKKKFYMFYSVEEHICVATSDSPVGPFRQESKQPIWEEKSIDTSLFIDDDGTPYLYFVRFTDGNVIWVAQMTDDLMKIKKETLSECIKAEEPWELLQAKVAEGPSVLKKKGMYYLIYSANHYQNKGYGVGYATSKSPMGPWTKYDKNPLLQGDESTGLVGTGHGAPFQCKDGSWKYIFHAHWNKEKIHPRTSYFKDFTISKQGVVSITGKVIKPKVIK
MIRVHSYESMGTFDGPGLRLVVFLQGCNFRCLYCANPDTIDTKGESTETAIDEIVRMAVSQKAFFGKKGGVTFSGGEPTLQAKALIPLFQRLKEQNIHICIDTNGSIWNEEVEELLKWTDLVLLDIKEFNNVRHRQLTERSNEQTIRTAEWLEKNGKPFWLRYVLVPGYSSFEEDIRALGEHFKNYHMIQRVEILPYHTLGVHKYEAMGKEYKLNGIKENTLEQLETAKTLFGEYFNTVYLN
MFAIISVTGADHTGIIAAVATKCADLGVNINNVSQTIMDGYFTMILHVSFDDSATDIATIQESMADVEKDQNLVIRIQSQAIFDAMNII
MSICDPALRNALRTLKLSGMLDTLDARLAQTRNGDLGHLEFLQALREDEIARRESAALTRRLRRAKFEAQATFEDFDFTANPKLPGAMLRDLAALRWLDAGESVILHGPVGVGKTHVAQALVHAVARRGGDVRFAKTSRMLSDLAGGHADRSWGQRIREYTKPLVLILDDFAMREHTAMHADDLYELISDRAITGKPLILTSNRAPNNWYGLFPNPVVAESLLDRLINTSHQILMDGPSYRPRKRPGRTTS
MAHHHHHHMQLQADLTQRTDSVNAIQRNFERLSAMHHAEQLELRRLRLLEKTRSEVAPDGLDAATRQLESVLAEMRHKALEQQTTFVQMEVDLQAANSSCALQQGIARLIASHADGFRDVLQAEAVAHSQLYQSAMSERAIIGSRNEATQQQLLCKDVAQLVADHQAQIVTKLIRGGAAESCRLQKSLAQVSTATVQELVRQGLRETAEAVHQYVASIHAADQERVLAEAEGQRDRERLRLALGELLRLRLRATEEAEATARQALLFGALQACATAQRAAEEVRLLTANADAAAAATRSSWEVTAALLTRRVSDWHDAADMRLVDFHDTIEASMAEKARERDAQSQQKTQELLLEERKRLENLHASQMQTMQVDWRRQRDAVQQSHAMQLEQVRSDLVAQVQVAEDRRVAAERRTGAMEAALIQLKRDHAAEVQAVEAHWRSAVSDAGRHCEQRWRTMLEVYQEGQKAHRGAMLQLFVDFLCTRGQCVYEEQAERAALCRSHWRNQTQHLREEQAAVMQHGVATADLLERMRCHKEDEAASRAVLHASEASDWAALVRKEAAHNAQAHHAVSMAAAAAGLEGLRAEMAGREVRWGQRLDALEADLRRAQQKCLGVVRRASDAVVAAQEAQAALQATQRDFAAYRCGVSAAAQRIEVAESATESACCCSLCLQLYCQPVACVPCGHIYCANCLLRHARNRSLSSVTSSFASAAGASTSENGAVGARAALEVTHWLRGKSTPHAFLFCPECASATVSTVVELPILGELTAKYDYKKRSLAVLLAELR
MSAPAAGATAGGDDAADRNVEMWKIKRLIKSLELARGNGTSMISLIIPPKDQVARIQRMLAEEYGTASNIKSRVNRLSVLGAITSVQGRLKLYNKVPPNGLVVYCGTIMTDEGKEKKVNIDFEPFKAINTSLYLCDNKFHTEALQGLLADDNKFGFIIMDGNGCLFGTLQGNTREVLHKFTVDLPKKHGRGGQSAVRFARLRNEKRHNYVRKVAENSVEQFIKNDKVTVAGLILAGSADFKTELGQSDMFDQRLQAKMIKTVDIAYGGENGFNQAIELAADTLASVKFIQEKKLIGGYFDEISQDTGKYVFGVKDTLAALEMGAIETLICWENLDIVRYKMKNSLGEDILLNLRPDEEKDKSHFTDSETGQDMEIIETMPLLEWFANNYKNFGAALEIVTDKSQEGAQFVRGFGGIGGLLRYRVDLAHVDLEDELDNIDLDDY
MGSDKIHHHHHHMTETTSQMRREVLEIPAAIDRLLSQGTPEIARIAAAVAKADPRFAVTVARGSSDHACTFLKYALELELGLPVASIGPSVASIYGAQLKLANSITLSVSQSGKSPDIVAMSRAATEGDSFTVAITNDAQSPLSDASSHTIDIHAGPEISVAATKTFVTSAAAGLILLAEWKDDDILRAALRGLPECLSKAATHDWPDLRAAIGSASSLFTLGRGPAWAISNEAALKFKETCQIHAESYSSAEVLHGPVSIVGGGFPVLCFASGDAAEASVTDVADQLAAKGARVFVTSDKADTAHCLPHVRTGHPLTDPLALIVSFYAMIEKVAAERGVNPDAPRHLNKVTETV
MCVKVACVGGGPAGLYLSILLKRQDPAHDVTVYERDPEGSTYGWGVTYWRGLLDRLRELDPGSARAVEEHSVRWRDGVAHVGGLATRHHGDEGFGIGRHRLLAILAARARELGVRLEFEHPVTGANPPAADLVVAADGAGSALRTHHADHFGTEITGGRDHYVWLGTTKVFDAFTFAFVETDHGWIWAYGYGFGPEGSTCVVECAPGTWTGLGLDRADEAEGLGLLEKLFADVLDGHPLSARSSGRASAAWPVFRTLTNRTWSRDNLVLLGDAAHTTHYSIGAGTTLALEDAMALATALRERDTLPDALAHYERERRAALLPVQSAARLSAQWYENLPRYIHLPPEQMFALLGQRHSPLLPHLPPRLYYRIDRAAGRLETLRRVKRRLGPVIARTVQARRLAAGDGRARSGRPDAVPAHRGLEHHHHHH
MGSDKIHHHHHHMTTFEVKDTAHVAFKIINLRCPHCHHAASFSGFDGCSDLRYNVQAKRHPSGATTNTFDIAGMRRCPNTTCRKLVFVMEDKYGEIESFPPEVIDFDASNLPSDILSSLEEAIRCHAANCYRASALMVRRTLEELCDNKSATGKDLKTRLAALGTVAVIPSELLSAADELRILGNDAAHIEAKDYDSIGKEESEIAIELAKELLKAVYQYTSLVARLTALKKPKQ

Soluble on expression in E. coli, soluble:
MNEFETLLNSVEDVKVRDVVKGEILSVENGQATVAIVGTGVEGVLTLREITNDKDADINTFVKPGDVLDLLVIKQIVGKEAEGANVYLLSLKRLEARKAWTQLEGKEGEIVTVKVTKDVKGGLSVDYNGVRGFIPASMIDTYFVKDTKKFVGEEIEAKIIEVNASENRFILSRRAVVEAEAIEMRKEAFAQLQEGDIVEGTVSRVTNFGAFVDLGGIDGLVHVSELSHSRIKRPSDAVKPGDVVNVKILKLDPEAGRLSLSLKATQPGPWEQVEEKAPVGSTVEGTVKRLTDFGAFVELYPGVEGLVHVSQISWERVENPKDVLKVGQVVNVKVLDVKPAEERISLSIKALEEAPARPARNNDNDGEKRDRKPRAPRKAAKPSYDLPETQEGFSLADFLGEDFDINDLLEHHHHHH
MAHHHHHHMKGVSIRQLDAIIILDSDGKRIAVKYYNDQFLPKGESKLIHKSPSRDSISYPFEDTYNNLRTVEDQKMFENDITEKARKLGGNSSETEVLILSKFTVLYLLINDVSIYIVGDEGDNEIILHEIMQTVQQCLESVTNNQIGRKQLLEKLDSIYLILDEIADSGIIMETNPNVIINRLYMHESDLQEHTPLNQAISSAKENIIRSLLSGT
MSGSNTAISRRRLLQGAGAMWLLSVSQVSLAAVSQVVAVRVWPASSYTRVTVESNRQLKYKQFALSNPERVVVDIEDVNLNSVLKGMAAQIRADDPFIKSARVGQFDPQTVRMVFELKQNVKPQLFALAPVAGFKERLVMDLYPANAQDMQDPLLALLEDYNKGDLEKQVPPAQSGPQPGKAGRDRPIVIMLDPGHGGEDSGAVGKYKTREKDVVLQIARRLRSLIEKEGNMKVYMTRNEDIFIPLQVRVAKAQKQRADLFVSIHADAFTSRQPSGSSVFALSTKGATSTAAKYLAQTQNASDLIGGVSKSGDRYVDHTMFDMVQSLTIADSLKFGKAVLNKLGKINKLHKNQVEQAGFAVLKAPDIPSILVETAFISNVEEERKLKTATFQQEVAESILAGIKAYFADGATLARRG
EDKYTDKYDNINLDEILANKRLLVAYVNCVMERGKCSPEGKELKEHLQDAIENGCKKCTENQEKGAYRVIEHLIKNEIEIWRELTAKYDPTGNWRKKYEDRAKAAGIVIPEE
SERGDQPKRTRNENIFNCLYKNPEATFKLICFPWMGGGSTHFAKWGQDTHDLLEVHSLRLPGRESRVEEPLENDISQLVDEVVCALQPVIQDKPFAFFGHSMGSYIAFRTALGLKENNQPEPLHLFLSSATPVHSKAWHRIPKDDELSEEQISHYLMEFGGTPKHFAEAKEFVKQCSPIIRADLNIVRSCTSNVPSKAVLSCDLTCFVGSEDIAKDMEAWKDVTSGNAKIYQLPGGHFYLLDPANEKLIKNYIIKCLEVSSISNF
MAHHHHHHMLRITPSRYASKVTAGNAKNQAGSPRQKAKLFHVIPGTPVTPVEKLKEQRRRFGQDRYSRQPEYRPGRNVRMDPNTFTLYATTKGVMTIRTSRINPSYKWLDVEPDIQKVYRSRCMRAALQARGKASMMVAGNVHYRAELDHVTEPHWRERVMRVPKATERFQDPNYFTRGLVPSLRPLSRYSYE
MQIFRDVSKLLVERVDPKILNLFRLLGKFGDEVNMPVYVVGGFVRDLLLGIKNLDIDIVVEGNALEFAEYAKRFLPGKLVKHDKFMTASLFLKGGLRIDIATARLEYYESPAKLPDVEMSTIKKDLYRRDFTINAMAIKLNPKDFGLLIDFFGGYRDLKEGVIRVLHTLSFVDDPTRILRAIRFEQRFDFRIEETTERLLKQAVEEGYLERTTGPRLRQELEKILEEKNPLKSIRRMAQFDVIKHLFPKTYYTPSMDEKMENLFRNIPWVEENFGEVDRFYAVLHVFLEFYDDESWKEVRDRYSLRRNLINEIRHVEKSAPALLEMLSERVPASFVYPLVKGVSNETICHFLAYLSGEKEGLFKSYLLKIKNTKLEKINGEYLIRKGITSGKIIGEVLEKILMKKLDGDTRDEEEILEEVLASLETEGKLAAALEHHHHHH
